Reference: article PMC8648943
Values belong to the molecule of their own block, whether it stands above or below them.

Key:
[1] = target: Pf3 coat protein with single cysteine 47C, tethered by its C-terminal end to the AFM tip through a PEG27-linker (phage Pf3) (UniProt P03623); assay: dynamic single-molecule force spectroscopy (DFS) by AFM; as a5, contact time 52 ms
[2] = target: Pf3 coat protein with single cysteine 47C, tethered by its C-terminal end to the AFM tip through a PEG27-linker (phage Pf3) (UniProt P03623); assay: dynamic single-molecule force spectroscopy (DFS) by AFM; Pf3 tethered through PEG27 to the AFM tip, YidC in supported POPE:POPG membranes; contact time 2 ms; pulling velocities 1–25 µm s^–1; Bell-Evans fit, k0 = zero-force transition rate of the bond; room temperature
[3] = target: Pf3 coat protein with single cysteine 47C, tethered by its C-terminal end to the AFM tip through a PEG27-linker (phage Pf3) (UniProt P03623); assay: FD-AFM-based single-molecule force spectroscopy; as a2, contact time 52 ms
[4] = target: Pf3 coat protein with single cysteine 47C, tethered by its C-terminal end to the AFM tip through a PEG27-linker (phage Pf3) (UniProt P03623); assay: FD-AFM-based single-molecule force spectroscopy; Pf3 tethered through PEG27 to the AFM tip, YidC in supported POPE:POPG membranes on mica; contact time ≈2 ms; pulling velocity 3–4.5 µm s^–1; room temperature; 150 mM KCl, 20 mM HEPES, pH 7.4
[5] = target: Pf3 coat protein with single cysteine 47C, tethered by its C-terminal end to the AFM tip through a PEG27-linker (phage Pf3) (UniProt P03623); assay: AFM-based single-molecule force spectroscopy (height clamp mode); Pf3 tethered by its C-terminal end through a PEG27-linker to the AFM tip, held ≈5–10 nm above a supported POPE:POPG membrane with YidC for ≈1–2 s; force-time curves; lifetimes fitted with the Bell model; room temperature; 150 mM KCl, 20 mM HEPES, pH 7.4
[6] = target: Pf3 coat protein with single cysteine 47C, tethered by its C-terminal end to the AFM tip through a PEG27-linker (phage Pf3) (UniProt P03623); assay: FD-AFM-based single-molecule force spectroscopy; as a2, contact time 502 ms
[7] = target: Pf3-47C labelled with Atto520 (phage Pf3) (UniProt P03623); assay: FRET or BRET; single-molecule FRET on a confocal FCS setup; proteoliposomes with 1 nM YidC S405C-Atto647N (acceptor) mixed with 1 nM Atto520-labelled Pf3-47C (donor); 300 mM NaCl, 20 mM Tris-HCl, pH 7.5; recorded for 360 s

Molecule: wild-type (wt) YidC insertase from E. coli (from UniProt P25714 1-548)
koff [1]: 2 s⁻¹

Molecule: ΔCH2 YidC mutant (residues 399–415 deleted) (from UniProt P25714 1-548)
koff [2]: 0.07 s⁻¹

Molecule: ΔCH2 YidC mutant (residues 399–415 deleted) (from UniProt P25714 1-548) (enzyme)
fraction of (un-)binding forces >50 pN [3]: 22.2% | mean (un-)binding force [3]: 41 pN | mean (un-)binding force [4]: 35.4 pN

The next lines start with the values.

fraction of (un-)binding forces >50 pN [3]: 48.7% | mean (un-)binding force [3]: 47.6 pN | lifetime of the bond (reciprocal of k0) [1]: 0.5 s | mean (un-)binding force [4]: 29.5 pN | bond lifetime at zero force (t0, Bell model) [5]: 0.32 s | fraction of force-time curves with interaction events [5]: 2 to 4% | koff [5]: 3.1 s⁻¹ | koff [2]: 0.03 s⁻¹ | lifetime of the bond (reciprocal of k0) [2]: 33 s | mean (un-)binding force [6]: 50.8 pN
Molecule: wild-type (wt) YidC insertase from E. coli (from UniProt P25714 1-548) (enzyme)

fraction of (un-)binding forces >50 pN [3]: 10.5% | mean (un-)binding force [3]: 31.5 pN | mean (un-)binding force [4]: 29.1 pN | koff [2]: 0.03 s⁻¹
Molecule: R366E YidC mutant (from UniProt P25714 1-548) (enzyme)

FRET events relative to wt YidC within 360 s [7]: 25%
B1: R366E YidC S405C labelled with Atto647N (enzyme)
chain: MDSQRNLLVIALLFVSFMIWQAWEQDKNPQPQAQQTTQTTTTAAGSAADQGVPASGQGKLISVKTDVLDLTINTRGGDVEQALLPAYPKELNSTQPFQLLETSPQFIYQAQSGLTGRDGPDNPANGPRPLYNVEKDAYVLAEGQNELQVPMTYTDAAGNTFTKTFVLKRGDYAVNVNYNVQNAGEKPLEISSFGQLKQSITLPPHLDTGSSNFALHTFRGAAYSTPDEKYEKYKFDTIADNENLNISSKGGWVAMLQQYFATAWIPHNDGTNNFYTANLGNGIAAIGYKSQPVLVQPGQTGAMNSTLWVGPEIQDKMAAVAPHLDLTVDYGWLWFISQPLFKLLKWIHSFVGNWGFSIIIITFIVEGIMYPLTKAQYTSMAKMRMLQPKIQAMRERLGDDKQRICQEMMALYKAEKVNPLGGSFPLLIQMPIFLALYYMLMGSVELRQAPFALWIHDLSAQDPYYILPILMGVTMFFIQKMSPTTVTDPMQQKIMTFMPVIFTVFFLWFPSGLVLYYIVSNLVTIIQQQLIYRGLEKRGLHSREKKKS
modifications: Atto647N (acceptor) on cysteine S405C in the cytoplasmic α-helical hairpin
